Results taken from patent US20120316071A1.
Each block holds one substance with its values, some of them ahead of it.

What was measured:
[1] = target: rHuman IGF-1 sR, (IGF-1 sR), CF (R&D Systems Cat#391-GR) (human) (UniProt P08069); experiment: MSD Multispot ECL, antigen spotted on plate, Fab in solution; blank spot of the row 316
[2] = target: rHuman ErbB2/Fc Chimera, CF (R&D Systems Cat#1129-ER) (human) (UniProt P04626); experiment: as above
[3] = target: rHuman CD44/Fc Chimera, CF (R&D Systems Cat#3660-CD) (human) (UniProt P16070); experiment: MSD Multispot ECL, antigen spotted on plate, Fab in solution; blank spot of the row 300
[4] = target: rHuman IGF-1 sR, (IGF-1 sR), CF (R&D Systems Cat#391-GR) (human) (UniProt P08069); experiment: as above
[5] = target: rHuman ErbB2/Fc Chimera, CF (R&D Systems Cat#1129-ER) (human) (UniProt P04626); experiment: as above
[6] = target: rHuman CD44/Fc Chimera, CF (R&D Systems Cat#3660-CD) (human) (UniProt P16070); experiment: MSD Multispot ECL, antigen spotted on plate, Fab in solution; blank spot of the row 297
[7] = target: rHuman IGF-1 sR, (IGF-1 sR), CF (R&D Systems Cat#391-GR) (human) (UniProt P08069); experiment: as above
[8] = target: rHuman ErbB2/Fc Chimera, CF (R&D Systems Cat#1129-ER) (human) (UniProt P04626); experiment: as above
[9] = target: rHuman Erythropoietin R/Fc Chimera, CF (R&D Systems Cat#963-ER) (human) (UniProt P19235); experiment: ECL multispot (MSD) binding assay, antigen spotted on plate; also: test concentration or dose not given here
[10] = target: rHuman IGF-1 sR, (IGF-1 sR), CF (R&D Systems Cat#391-GR) (human) (UniProt P08069); experiment: MSD Multispot ECL, antigen spotted on plate, Fab in solution; blank spot of the row 373
[11] = target: rHuman ErbB2/Fc Chimera, CF (R&D Systems Cat#1129-ER) (human) (UniProt P04626); experiment: as above
[12] = target: rHuman Erythropoietin R/Fc Chimera, CF (R&D Systems Cat#963-ER) (human) (UniProt P19235); experiment: ECL Multispot (MSD), antigen spotted; Fab 500 (µM); blank 570; first of duplicates
[13] = target: rHuman Erythropoietin R/Fc Chimera, CF (R&D Systems Cat#963-ER) (human) (UniProt P19235); experiment: ECL Multispot (MSD), antigen spotted; Fab 50 (µM); blank 332; first of duplicates
[14] = target: rHuman Erythropoietin R/Fc Chimera, CF (R&D Systems Cat#963-ER) (human) (UniProt P19235); experiment: ECL Multispot (MSD), antigen spotted; Fab 5 (µM); blank 102; first of duplicates
[15] = target: rHuman Erythropoietin R/Fc Chimera, CF (R&D Systems Cat#963-ER) (human) (UniProt P19235); experiment: MSD ECL multispot assay, antigen spotted on plate, Fab in solution; blank spot of this row 282; also: test concentration or dose not given here
[16] = target: rHuman EGF R/Fc Chimera, CF (R&D Systems Cat#344-ER) (human) (UniProt P00533); experiment: ECL Multispot (MSD), antigen spotted, Fab 50.00 (column head 'Fab [µM]'); blank 223
[17] = target: rHuman Erythropoietin R/Fc Chimera, CF (R&D Systems Cat#963-ER) (human) (UniProt P19235); experiment: as above
[18] = target: rHuman Erythropoietin R/Fc Chimera, CF (R&D Systems Cat#963-ER) (human) (UniProt P19235); experiment: MSD ECL multispot assay, antigen spotted on plate, Fab in solution; blank spot of this row 274; also: test concentration or dose not given here
[19] = target: rHuman EGF R/Fc Chimera, CF (R&D Systems Cat#344-ER) (human) (UniProt P00533); experiment: ECL Multispot (MSD), antigen spotted, Fab 500.00 (column head 'Fab [µM]'); blank 495
[20] = target: rHuman Erythropoietin R/Fc Chimera, CF (R&D Systems Cat#963-ER) (human) (UniProt P19235); experiment: as above
[21] = target: rHuman Erythropoietin R/Fc Chimera, CF (R&D Systems Cat#963-ER) (human) (UniProt P19235); experiment: MSD ECL multispot assay, antigen spotted on plate, Fab in solution; blank spot of this row 277; also: test concentration or dose not given here
[22] = target: rHuman Erythropoietin R/Fc Chimera (human) (UniProt P19235); experiment: ECL multispot (MSD) binding assay; antigen spotted on plate, Fab in solution; also: test concentration or dose not given here
[23] = target: rHuman EGF R/Fc Chimera, CF (R&D Systems Cat#344-ER) (human) (UniProt P00533); experiment: ECL Multispot (MSD), antigen spotted, Fab 5.00 (column head 'Fab [µM]'); blank 268
[24] = target: rHuman Erythropoietin R/Fc Chimera, CF (R&D Systems Cat#963-ER) (human) (UniProt P19235); experiment: as above
[25] = target: rHuman EGF R/Fc Chimera, CF (R&D Systems Cat#344-ER) (human) (UniProt P00533); experiment: ECL Multispot (MSD), antigen spotted, Fab 0.50 (column head 'Fab [µM]'); blank 206
[26] = target: rHuman Erythropoietin R/Fc Chimera, CF (R&D Systems Cat#963-ER) (human) (UniProt P19235); experiment: as above
[27] = target: rHuman Erythropoietin R/Fc Chimera, CF (R&D Systems Cat#963-ER) (human) (UniProt P19235); experiment: ECL Multispot (MSD), antigen spotted; Fab 0.50 (µM); blank 95; first of duplicates
[28] = target: rHuman IGF-1 sR, (IGF-1 sR), CF (R&D Systems Cat#391-GR) (human) (UniProt P08069); experiment: MSD Multispot ECL, antigen spotted on plate, Fab in solution; blank spot of the row 351
[29] = target: rHuman ErbB2/Fc Chimera, CF (R&D Systems Cat#1129-ER) (human) (UniProt P04626); experiment: as above
[30] = target: rHuman IGF-1 sR, (IGF-1 sR), CF (R&D Systems Cat#391-GR) (human) (UniProt P08069); experiment: MSD Multispot ECL, antigen spotted on plate, Fab in solution; blank spot of the row 337
[31] = target: rHuman ErbB2/Fc Chimera, CF (R&D Systems Cat#1129-ER) (human) (UniProt P04626); experiment: as above
[32] = target: rHuman Erythropoietin R/Fc Chimera, CF (human) (UniProt P19235); experiment: ECL multispot (MSD) assay, antigen spotted on the plate, Fab in solution; blank spot of the same well 284; also: test concentration or dose not given here

ECL signal [1]: 924
ECL signal [2]: 1070
Substance: Fab VH5-51_IGHD5-18*01>3_IGHJ4*01 G100K/G104T S28A & V3-4_IGLJ1*01

ECL signal [3]: 608
ECL signal [4]: 923
ECL signal [5]: 1150
Substance: Fab VH5-51_IGHD5-18*01>3_IGHJ4*01 G100K/G104T I34A & V3-4_IGLJ1*01

ECL signal [12]: 4720
ECL signal [13]: 736
ECL signal [14]: 294
ECL signal [15]: 1060
ECL signal [16]: 552
ECL signal [17]: 879
ECL signal [18]: 473
ECL signal [19]: 2900
ECL signal [20]: 4970
ECL signal [21]: 467
ECL signal [22]: 433
ECL signal [23]: 303
ECL signal [24]: 423
ECL signal [25]: 266
ECL signal [26]: 298
ECL signal [27]: 122
Substance: Fab VH1-46_IGHD6-6*01_IGHJ1*01 S102A/S103P/S104F/H111F (APFF) & L6_IGKJ1*01

ECL signal [30]: 945
ECL signal [31]: 1040
Substance: Fab VH5-51_IGHD5-18*01>3_IGHJ4*01 G100K/G104T F29A & V3-4_IGLJ1*01

ECL signal [32]: 604
Substance: Fab VH1-46_IGHD6-6*01_IGHJ1*01 S102A/S103P/S104F/H111F (APFF) & L6_IGKJ1*01 S31Y

The remaining lines, values behind:

Substance: Fab VH5-51_IGHD5-18*01>3_IGHJ4*01 G100K/G104T G35A & V3-4_IGLJ1*01
ECL signal [6]: 624
ECL signal [7]: 899
ECL signal [8]: 911

Substance: Fab VH1-46_IGHD6-6*01_IGHJ1*01 S102A/S103P/S104F/H111F (APFF) & L6_IGKJ1*01 S31A
ECL signal [9]: 461

Substance: Fab VH5-51_IGHD5-18*01>3_IGHJ4*01 G100K/G104T G24A & V3-4_IGLJ1*01
ECL signal [10]: 879
ECL signal [11]: 869

Substance: Fab VH5-51_IGHD5-18*01>3_IGHJ4*01 G100K/G104T T30A & V3-4_IGLJ1*01
ECL signal [28]: 968
ECL signal [29]: 1070
